The data set deals with the molecule itself. The data set can be described thus: sucrose gradient velocity sedimentation.

B1: C213Y Prph2 (natural protein, UniProt P15499 1-346, looked up)
chain: MALLKVKFDQKKRVKLAQGLWLMNWLSVLAGIVLFSLGLFLKIELRKRSEVMNNSESHFVPNSLIGVGVLSCVFNSLAGKICYDALDPAKYAKWKPWLKPYLAVCIFFNVILFLVALCCFLLRGSLESTLAYGLKNGMKYYRDTDTPGRCFMKKTIDMLQIEFKCCGNNGFRDWFEIQWISNRYLDFSSKEVKDRIKSNVDGRYLVDGVPFSYCNPSSPRPCIQYQLTNNSAHYSYDHQTEELNLWLRGCRAALLNYYSSLMNSMGVVTLLVWLFEVSITAGLRYLHTALESVSNPEDPECESEGWLLEKSVPETWKAFLESFKKLGKSNQVEAEGADAGPAPEAG
modifications: N-linked glycan (the paper shows that the mutant is glycosylated; Asn229 is the site in Prph2)
On to B1, for which the stoichiometry N (as a rule, a count of units in the complex or per binding partner) was found to be 4.

Values taken from PMC7592630 (FASEB journal : official publication of the Federation of …, 2019).
